In PMC11623648:

Target: Integrin αIIbβ3 (human (endogenous in platelets)) (UniProt P05106)
Test: cryo-EM structure

stoichiometry N: 2
Substance: Integrin αIIbβ3 (from UniProt P05106 27-788) (complex)
